The results in this text go back to US20060024786.

The series relates to full length human N-WASP (Myc-N-WASP-TAP).

On to “N_GST_tev_Rac1 GTP (bacterial GST tagged Rac1 protein)”, for which the “activation of FL N-WASP (barbed ends, actin polymerization assay)” value is on record as “Rac1 can activate FL N-WASP”; the “activation of FL N-WASP against Cdc42” value was “Rac1 was a more potent N-WASP activator than Cdc42 in the absence of PIP2 vesicles”; the “dose dependence of barbed end concentration” value is “there is a bell shaped dose dependence for Nck1, Nck2 and Rac1”.
